Data from patent US20250297255A1 (ARSENAL BIOSCIENCES, published 2025).

B1: TMPRSS4 Ab25 scFv (VH-VL) (scFv)
scFv: QVQLVQSGAEVKKPGASVKVSCKASGGRFSTYALSWVRQAPGQGLEWMGWINPNSGGTNYAQKFQGRVTMTRDTSTSTVYMELSSLRSEDTAVYYCAKSLWWSPSHYYYYGMDVWGQGTTVTVSSGGGGSGGGGSGGGGSEIVMTQSPATLSVSPGERATLSCRASQSVSSNYLAWYQQKPGQAPRLLIYGISTRASGIPARFSGSGSGTEFTLTISSLQSEDFAVYYCQQRSNWPPSITFGQGTRLEIK
notes: on monoclonal phage in the screen
B2: TMPRSS4 Ab26 scFv (VH-VL) (scFv)
scFv: EVQLLESGGGLVQPGGSLRLSCAASGFTFSSYAMHWVRQAPGKGLEWVAVIWYDGSSKYYADSVKGRFTISRDNSKNTLYLQMNSLRAEDTAVYYCARGEVRRGFQHWGQGTLVTVSSGGGGSGGGGSGGGGSDIQMTQSPSSLSASVGDRVTITCRASQNVGSWLAWYQQKPGKAPKLLIYAASSLQSGVPSRFSGSGSGTDFTLTIRSLQPEDFATYYCQQSYSTPITFGQGTRLEIK
notes: as for B1
B3: TMPRSS4 Ab17 scFv (VH-VL) (scFv)
scFv: QVQLVQSGAEVKKPGASVKVSCKASGYTFTSYYIHWVRQAPGQGLEWMGWMSPNSGDTGYAQKFQGRVTMTRDTSTSTVYMELSSLRSEDTAVYYCARLVRGGFDYWGQGTLVTVSSGGGGSGGGGSGGGGSDIQMTQSPSSLSASVGDRVTITCRASQGISSYLNWYQQKPGKAPKLLIYAASRLQSGVPSRFSGSGSGTDFTLTISSLQPEDFATYYCQQSYRSPPTFGQGTKLEIK
notes: as for B1
B4: TMPRSS4 Ab20 scFv (VH-VL) (scFv)
scFv: QVQLVQSGAEVKKPGASVKVSCKASGYTFTRYYMHWVRQAPGQGLEWMGWMNPNSGNAGYAQKLQGRVTMTRDTSTSTVYMELSSLRSEDTAVYYCARGYNWFDPWGQGTLVTVSSGGGGSGGGGSGGGGSDIQMTQSPSSLSASVGDRVTITCRASQNIATYLSWYQQKPGKAPKLLIYGASALRSGVPSRFSGSGSGTDFTLTISSLQPEDFATYYCLQHNTYPLTFGGGTKVEIK
notes: as for B1
B5: TMPRSS4 Ab18 scFv (VH-VL) (scFv)
scFv: QVQLVQSGAEVKKPGASVKVSCKASGYTFTSSGINWVRQAPGQGLEWMGWINPNSGGAKYAQRFQGRVTMTRDTSTSTVYMELSSLRSEDTAVYYCARARGYSGSKRDFQHWGQGTLVTVSSGGGGSGGGGSGGGGSDIVMTQSPDSLAVSLGERATINCKSSQSVLYSSNNKNYLAWYQQKPGQPPKLLIYWASTRESGVPDRFSGSGSGTDFTLTISSLQAEDVAVYHCQQYYNTPFTFGPGTKVDIK
notes: as for B1
B6: TMPRSS4 Ab10 scFv (VH-VL) (scFv)
scFv: QVQLVQSGAEVKKPGASVKVSCKASGYTFTSYYMHWVRQAPGQGLEWMGIINPSGAGTTYGHNFQGRVTMTRDTSTSTVYMELSSLRSEDTAVYYCARGPRDTAMVRFDYWGQGTLVTVSSGGGGSGGGGSGGGGSEIVMTQSPATLSVSPGERATLSCRASQSVSSYLAWYQQKPGQAPRLLIYGASTRATGIPARFSGSGSGTEFTLTISSLQSEDFAVYYCQQYGSSPGTFGQGTKLEIK
notes: as for B1
B7: TMPRSS4 Ab11 scFv (VH-VL) (scFv)
scFv: QVQLVQSGAEVKKPGASVKVSCKASGGTFSNYAISWVRQAPGQGLEWVGRINPNSGGTNYAQKFQGRVTMTRDTSTSTVYMELSSLRSEDTAVYYCARGRYSSSSWGQGTLVTVSSGGGGSGGGGSGGGGSDIQMTQSPSSLSASVGDRVTITCRASQSINNYLNWYQQKPGKAPKLLIYAASSLQSGVPSRFSGSGSGTDFTLTISSLQPEDFATYYCQQSYSTKWTFGQGTKVEIK
notes: as for B1
B8: TMPRSS4 Ab16 scFv (VH-VL) (scFv)
scFv: QVQLVQSGAEVKKPGASVKVSCKASGYTFSRHYMHWVRQAPGQGLEWMGRINPNSGGTNYAQKFQGRVTMTRDTSTSTVYMELSSLRSEDTAVYYCARSIYGDYWFDPWGQGTLVTVSSGGGGSGGGGSGGGGSDIQMTQSPSSLSASVGDRVTITCRASQSINRWLAWYQQKPGKAPKLLIYGASNLQSGVPSRFSGSGSGTDFTLTISSLQPEDFATYYCQQANSFPYTFGQGTKLEIK
notes: as for B1
B9: TMPRSS4 Ab24 scFv (VH-VL) (scFv)
scFv: QVQLVQSGAEVKKSGASVKVSCKASGYTFTSYYMHWVRQAPGQGLEWMGVINPSGGTTSYAQKFQGRVTMTRETSTSTVYMELSSLRSEDTAVYYCARGRGWLRSALGYWGQGTLVTVSSGGGGSGGGGSGGGGSDIQMTQSPSSLSASVGDRVTITCRASQSISSWLAWYQQKPGKAPKLLIYAASTLQSGVPSRFSGSGSGTDFTLTISSLQPEDFATYYCQQSYNTPYTFGQGTKLEIK
notes: as for B1
B10: TMPRSS4 Ab19 scFv (VH-VL) (scFv)
scFv: QVQLVQSGAEVKKPGASVKVSCKASGYTFNRKFMHWVRQAPGQGLEWMGWMNPNNGATNYAQKFQGRVTMTRDTSTSTVYMELSSLRSEDTAVYYCARGRGYYGSGSYYGDYWGQGTLVTVSSGGGGSGGGGSGGGGSDIQMTQSPSSLSASVGDRVTITCRASQSISRYLNWYQQKPGKAPKLLIYGASNLQSGVPSRFSGSGSGTDFTLTISSLQPEDFATYYCQQSYSTPPTFGPGTKVDIK
notes: as for B1
B11: TMPRSS4 Ab27 scFv (VH-VL) (scFv)
scFv: QVQLVQSGAEVKKPGASVKVSCKASGYTFSRYYMHWVRQAPGQGLEWMGWMNPNSGDTGYAQKFQGRVTMTRDTSTSTVYMELSSLRSEDTAVYYCAKGREWLRSPFDYWGQGTLVTVSSGGGGSGGGGSGGGGSDIQMTQSPSSLSASVGDRVTITCRASQSISTWLAWYQQKPGKAPKLLIYAASSLQSGVPSRFSGSGSGTDFTLTISSLQPEDFATYYCQQLSSYPLTFGQGTKVEIK
notes: as for B1
B12: TMPRSS4 Ab23 scFv (VH-VL) (scFv)
scFv: QVQLVQSGAEVKKPGASVKVSCKASGYTFTRNYLHWVRQAPGQGLEWMGIINPSGGSTTYAQKFQGRVTMTRDTSTSTVYMELSSLRSEDTAVYYCARGRTWFRSGMDVWGQGTTVTVSSGGGGSGGGGSGGGGSEIVMTQSPATLSVSPGERATLSCRASQSVGNYLAWYQQKPGQAPRLLIYGASTRATGIPARFSGSGSGTEFTLTISSLQSEDFAVYYCQQYHSSPPYTFGQGTKVEIK
notes: as for B1
B13: TMPRSS4 Ab12 scFv (VH-VL) (scFv)
scFv: QVQLVQSGAEVKKPGASVKVSCKASGYTFSNYYIHWVRQAPGQGLEWMGWINPNSGDTNYAQKFQGRVTMTRDTSTSTVYMELSSLRSEDTAVYYCARGMTWRTSAATYWGQGTLVTVSSGGGGSGGGGSGGGGSDIQMTQSPSSLSASVGDRVTITCRASQGISRWLAWYQQKPGKAPKLLIYGASNLQTGVPSRFSGSGSGTDFTLTISSLQPEDFATYYCQQSYSTPPTFGPGTKVDIK
notes: as for B1
B14: TMPRSS4 Ab14 scFv (VH-VL) (scFv)
scFv: EVQLLESGGGLVQPGGSLRLSCAASGFTFSNHYMSWVRQAPGKGLEWVSAISGSGGSTYYADSVKGRFTISRDNSKNTLYLQMNSLRAGDTAVYYCARDRYRWGRGYFQHWGQGTLVTVSSGGGGSGGGGSGGGGSDIQMTQSPSSLSASVGDRVTITCRASQRISTYLNWYQQKPGKAPKLLIYSASTLQAGVPSRFSGSGSGTDFTLTISSLQPEDFATYYCQQAYSLPWTFGQGTKLEIK
notes: as for B1
B15: TMPRSS4 Ab15 scFv (VH-VL) (scFv)
scFv: QVQLVQSGAEVKKPGASVKVSCKASGYTFTRYYMHWVRQAPGQGLEWMGWINPNSGVTNFAQKFQGRVTMTRDTSTSTVYMELSSLRSEDTAVYYCARVRIGWLQSPPLYWGQGTLVTVSSGGGGSGGGGSGGGGSDIQMTQSPSSLSASVGDRVTITCRASQSINTWLAWYQQKPGKAPKLLIYAASSLQSGVPSRFSGSGSGTDFTLTISSLQPEDFATYYCQQAISFPLTFGGGTKVEIK
notes: as for B1
B16: TMPRSS4 Ab46 scFv (VH-VL) (scFv)
scFv: QVQLVQSGAEVKKPGASVKVSCKASGYTFSRYFMHWVRQAPGQGLEWMGWINPNSGGTNYAQKFQGRVTMTRDTSTSTVYMELSSLRSEDTAVYYCARVRIGWLQSPPLYWGQGTLVTVSSGGGGSGGGGSGGGGSDIQMTQSPSSLSASVGDRVTITCRASQSISTWLAWYQQKPGKAPKLLIYAASSLQSGVPSRFSGSGSGTDFTLTISSLQPEDFATYYCQQSYGFPWTFGQGTKVEIK
notes: as for B1
B17: TMPRSS4 Ab22 scFv (VH-VL) (scFv)
scFv: QVQLVQSGAEVKKPGASVKVSCKASGYTFTSYYMHWVRQAPGQGLEWMGRINPHSGDADFVDKFQGRVTMTRDTSTSTVYMELSSLRSEDTAVYYCARDRRGYGGNSLDYWGQGTLVTVSSGGGGSGGGGSGGGGSDIQMTQSPSSLSASVGDRVTITCRAGQNIKRYLNWYQQKPGKAPKLLIYAASSLQSGVPSRFSGSGSGTDFTLTISSLQPEDFATYYCQQSYSSPLTFGGGTKVEIK
notes: as for B1
B18: TMPRSS4 Ab2 scFv (VH-VL) (scFv)
scFv: EVQLLESGGGLVQPGGSLRLSCAASGFTFSDYYMSWVRQAPGKGLEWVSYISGSGDAIYYADSVKGRFTISRDNSKNTLYLQMNSLRAEDTAVYYCARDRSDCGGDDRFLCDGYFDLWGRGTLVSLSGGGGSGGGGSGGGGSDIQMTQSPSSLSASVGDRVTITCRASQSTNNYVNWYQQKPGKAPKLLIYAASSLQSGVPSRFSGSGSGTDFTLTISSLQPEDFATYYCQQSYSIPLTFGPGTKVDIK
notes: as for B1
B19: TMPRSS4 Ab13 scFv (VH-VL) (scFv)
scFv: QVQLVQSGAEVKKPGASVKVSCKASGYTFTNYYMHWVRQAPGQGLEWMGWISAYNGNTNYAQKLQGRVTMTRDTSTSTVYMELSSLRSEDTAVYYCATASGWGHSNSAGYWGQGTLVTVSSGGGGSGGGGSGGGGSEIVMTQSPATLSVSPGERATLSCRASQSVNGNYLAWYQQKPGQAPRLLIYGVSSRASGIPARFSGSGSGTEFTLTISSLQSEDFAVYYCQQYGSSPYTFGQGTKVEIK
notes: as for B1
B20: TMPRSS4 Ab1 scFv (VH-VL) (scFv)
scFv: QVQLVQSGAEVKKPGSSVKVSCKASGYTFTDYYMHWVRQAPGQGLEWMGGIIPIFGTANYAQKFQGRVTITADESTSTAYMELSSLRSEDTAVYYCAKEGANGYWGQGTLVTVSSGGGGSGGGGSGGGGSDIQMTQSPSSLSASVGDRVTITCQASQDISNYLNWYQQKPGKAPKLLIYKASSLESGVPSRFSGSGSGTDFTLTISSLQPEDFATYYCQQSSRIPPTFGQGTKVEIK
notes: as for B1

Target: T1, Human TMPRSS4 (Transmembrane protease, serine 4), wild type full length (human, UniProt Q9NRS4 1-437)
T1 construct: Type II membrane protein over-expressed on HEK293T cells (also endogenous on H1975 and LUDLU-1 cells); also called TMPRSS4 WT; HEK293T-TMPRSS4
Test: flow cytometry, monoclonal phage on HEK293T-TMPRSS4 cells;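 note: bound phage detected with a PE-labelled mouse anti-M13 monoclonal antibody, read by flow cytometry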

T1 sequence (Q9NRS4 whole entry): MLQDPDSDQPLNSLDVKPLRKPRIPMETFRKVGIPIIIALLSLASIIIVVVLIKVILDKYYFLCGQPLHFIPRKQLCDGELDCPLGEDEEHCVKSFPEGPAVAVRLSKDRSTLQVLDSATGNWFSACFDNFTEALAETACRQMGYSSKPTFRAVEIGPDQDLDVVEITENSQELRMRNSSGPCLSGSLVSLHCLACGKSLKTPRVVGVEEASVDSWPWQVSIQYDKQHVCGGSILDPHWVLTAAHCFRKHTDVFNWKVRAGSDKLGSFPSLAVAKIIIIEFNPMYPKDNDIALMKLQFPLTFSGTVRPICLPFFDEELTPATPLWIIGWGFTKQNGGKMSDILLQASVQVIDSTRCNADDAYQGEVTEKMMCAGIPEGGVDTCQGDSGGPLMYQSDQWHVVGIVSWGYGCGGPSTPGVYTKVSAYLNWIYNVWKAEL

| Binder | binding result |
| --- | --- |
| B1 | binds |
| B2 | binds |
| B3 | binds |
| B4 | binds |
| B5 | binds |
| B6 | binds |
| B7 | binds |
| B8 | binds |
| B9 | binds |
| B10 | binds |
| B11 | binds |
| B12 | binds |
| B13 | binds |
| B14 | binds |
| B15 | binds |
| B16 | binds |
| B17 | binds |
| B18 | binds |
| B19 | binds |
| B20 | binds |
